Biological target: the molecule itself
Test: global analysis of urea unfolding and refolding kinetics (manual-mixing far-UV CD at 230 nm); kinetic traces at 0.25 to 8.75 M urea and 1 to 40 µM protein fit together to 2U = 2M = N2; constants in the absence of urea; step: dimer (N2) to folded monomers (2M); monomer unfolding rate fixed to that of the stable monomeric variants; apo protein; 10 mM potassium phosphate, 1 mM K2EDTA, pH 7.2, 20°C

Protein	Kd [nM]	koff [s⁻¹]	kon [M⁻¹ s⁻¹]
apo A4V SOD1 in the AS-SOD1 (C6A/C111S) background (enzyme, human Cu,Zn superoxide dismutase (SOD1), 153-residue subunit; Apo (metal-free) form with the intra-subunit C57-C146 disulfide bond intact; source: BL21-Gold(DE3) PLysS cells, purified (anion exchange QSepharose XL and/or gel filtration Sephacryl 200HR)) not shown	123	0.0223	180000
apo L38V SOD1 in the AS-SOD1 (C6A/C111S) background (enzyme, human Cu,Zn superoxide dismutase (SOD1), 153-residue subunit; Apo (metal-free) form with the intra-subunit C57-C146 disulfide bond intact; source: BL21-Gold(DE3) PLysS cells, purified (anion exchange QSepharose XL and/or gel filtration Sephacryl 200HR)) not shown	4.6	0.000557	120000
apo L106V SOD1 in the AS-SOD1 (C6A/C111S) background (enzyme, human Cu,Zn superoxide dismutase (SOD1), 153-residue subunit; Apo (metal-free) form with the intra-subunit C57-C146 disulfide bond intact; source: BL21-Gold(DE3) PLysS cells, purified (anion exchange QSepharose XL and/or gel filtration Sephacryl 200HR)) not shown	21	0.00151	73000
apo S134N SOD1 in the AS-SOD1 (C6A/C111S) background (enzyme, human Cu,Zn superoxide dismutase (SOD1), 153-residue subunit; Apo (metal-free) form with the intra-subunit C57-C146 disulfide bond intact; source: BL21-Gold(DE3) PLysS cells, purified (anion exchange QSepharose XL and/or gel filtration Sephacryl 200HR)) not shown	1.1	0.000222	200000
apo-AS-SOD1 (human Cu,Zn superoxide dismutase, C6A/C111S pseudo-wild-type background, metal-free) (enzyme, human Cu,Zn superoxide dismutase (SOD1), 153-residue subunit; Apo (metal-free) form with the intra-subunit C57-C146 disulfide bond intact; also called WT; WT SOD1; source: BL21-Gold(DE3) PLysS cells, purified (anion exchange QSepharose XL and/or gel filtration Sephacryl 200HR)) not shown	0.87	0.000745	860000
